In article PMC5362816:

B1: TRPM8 (V5-His tagged), Q8R455 1-1104 (natural protein)
chain: MSFEGARLSMRSRRNGTLGSTRTLYSSVSRSTDVSYSESDLVNFIQANFKKRECVFFTRDSKAMESICKCGYAQSQHIEGTQINQNEKWNYKKHTKEFPTDAFGDIQFETLGKKGKYLRLSCDTDSETLYELLTQHWHLKTPNLVISVTGGAKNFALKPRMRKIFSRLIYIAQSKGAWILTGGTHYGLMKYIGEVVRDNTISRNSEENIVAIGIAAWGMVSNRDTLIRNCDDEGHFSAQYIMDDFMRDPLYILDNNHTHLLLVDNGCHGHPTVEAKLRNQLEKYISERTSQDSNYGGKIPIVCFAQGGGRETLKAINTSVKSKIPCVVVEGSGQIADVIASLVEVEDVLTSSMVKEKLVRFLPRTVSRLPEEEIESWIKWLKEILESPHLLTVIKMEEAGDEVVSSAISYALYKAFSTNEQDKDNWNGQLKLLLEWNQLDLASDEIFTNDRRWESADLQEVMFTALIKDRPKFVRLFLENGLNLQKFLTNEVLTELFSTHFSTLVYRNLQIAKNSYNDALLTFVWKLVANFRRSFWKEDRSSREDLDVELHDASLTTRHPLQALFIWAILQNKKELSKVIWEQTKGCTLAALGASKLLKTLAKVKNDINAAGESEELANEYETRAVELFTECYSSDEDLAEQLLVYSCEAWGGSNCLELAVEATDQHFIAQPGVQNFLSKQWYGEISRDTKNWKIILCLFIIPLVGCGLVSFRKKPIDKHKKLLWYYVAFFTSPFVVFSWNVVFYIAFLLLFAYVLLMDFHSVPHTPELILYALVFVLFCDEVRQWYMNGVNYFTDLWNVMDTLGLFYFIAGIVFRLHSSNKSSLYSGRVIFCLDYIIFTLRLIHIFTVSRNLGPKIIMLQRMLIDVFFFLFLFAVWMVAFGVARQGILRQNEQRWRWIFRSVIYEPYLAMFGQVPSDVDSTTYDFSHCTFSGNESKPLCVELDEYNLPRFPEWITIPLVCIYMLSTNILLVNLLVAMFGYTVGIVQENNDQVWKFQRYFLVQEYCNRLNIPFPFVVFAYFYMVVKKCFKCCCKEKNTESSACCFRNEDNETLAWEGVMKENYLVKINTKANDNAEEMRHRFRQLDTKLNDLKGLLKEIANKIK
modifications: here or on the partner: coupled to agarose
B2: TRPV2 (V5-His tagged), Q9WUD2 1-761 (natural protein)
chain: MTSASSPPAFRLETSDGDEEGNAEVNKGKQEPPPMESPFQREDRNSSPQIKVNLNFIKRPPKNTSAPSQQEPDRFDRDRLFSVVSRGVPEELTGLLEYLRWNSKYLTDSAYTEGSTGKTCLMKAVLNLQDGVNACIMPLLQIDKDSGNPKLLVNAQCTDEFYQGHSALHIAIEKRSLQCVKLLVENGADVHLRACGRFFQKHQGTCFYFGELPLSLAACTKQWDVVTYLLENPHQPASLEATDSLGNTVLHALVMIADNSPENSALVIHMYDGLLQMGARLCPTVQLEEISNHQGLTPLKLAAKEGKIEIFRHILQREFSGPYQPLSRKFTEWCYGPVRVSLYDLSSVDSWEKNSVLEIIAFHCKSPNRHRMVVLEPLNKLLQEKWDRLVSRFFFNFACYLVYMFIFTVVAYHQPSLDQPAIPSSKATFGESMLLLGHILILLGGIYLLLGQLWYFWRRRLFIWISFMDSYFEILFLLQALLTVLSQVLRFMETEWYLPLLVLSLVLGWLNLLYYTRGFQHTGIYSVMIQKVILRDLLRFLLVYLVFLFGFAVALVSLSREARSPKAPEDNNSTVTEQPTVGQEEEPAPYRSILDASLELFKFTIGMGELAFQEQLRFRGVVLLLLLAYVLLTYVLLLNMLIALMSETVNHVADNSWSIWKLQKAISVLEMENGYWWCRRKKHREGRLLKVGTRGDGTPDERWCFRVEEVNWAAWEKTLPTLSEDPSGPGITGNKKNPTSKPGKNSASEEDHLPLQVLQSP
modifications: here or on the partner: coupled to agarose

Biological target: CaM-agarose (Sigma), P62157
Experiment: pull-down; CaM-agarose (Sigma) incubated with HEK293 lysate expressing a V5-His-tagged TRP channel; 20 mM Tris-HCl pH 7.4, 150 mM NaCl, 1% NP-40, 4 °C; 1 mM Ca2+ (Fig. 2A) or 2 mM Ca2+ (Fig. 2B); blot with anti-V5
Settings: remark: other sources report otherwise

Binder	relative binding to CaM (normalized by total input)
B1	0.9
B2	0.8
